The conditions of series [1]: cited from earlier work; for reduction in sensitivity to a reducing agent such as dithiothreitol: in the antibody drug conjugate context; for Relative Stability to DTT (ADC): values relate to antibody drug conjugates containing the disulphide linker.
Series [2] in a line: Plasma stability profiling, Method #2 (quantitative LC-MS), rat plasma. The series is classed as in vitro ADME. Particulars: incubation up to 24 hrs in plasma, 4 μM BDC, read-out: t1/2 (hrs) (rat plasma) (converted). The procedure:
(§1) To obtain plasma stability of bicyclic peptides quantitatively, peptide stock solutions (160 μM in DMSO) were mixed with plasma (human, rat or mouse), such that final concentrations were 4 μM, and incubated at 37° C. 40 μL samples were taken periodically up to 24 hrs and frozen at −80° C. Prior to LC-MS analysis, samples were defrosted, and mixed with 3 volumes (here, 120 μL) of 1 part water, 3 parts acetonitrile and 3 parts methanol. The milky suspensions were centrifuged for 40 min at 14000 rpm in a cooled centrifuge, and peptide-containing supernatants were quantitated for doubly/triply charged species and MS/MS fragments thereof using a Waters Xevo TQ-D instrument, while using a plasma extracted standard curve of the same peptides as a reference. The half-life of degradation in plasma was used to assess the comparative stability of the molecules.

Series [3] can be described thus: Plasma stability profiling, Method #2 (quantitative LC-MS), human plasma. The series is classed as in vitro ADME. The following applies: incubation up to 24 hrs in plasma, 4 μM BDC, read-out: t1/2 (hrs) (human plasma) (converted). The procedure: as §1
The subject of a further series is EBC-1 xenograft tumours. Kind of series: Efficacy in EBC-1 xenograft mice. The series is classed as in vivo, Balb/c nude mice. The procedure:
(§2) Efficacy of BT17BDC-27 and BT17BDC-28 in EBC-1 Xenograft Mice.
(§3) Balb/c nude mice bearing subcutaneous EBC-1 xenograft tumours were treated with BDCs or vehicle. BDCs were dosed 3 times weekly for 2 weeks, dosing initiated when tumours measured approx. 150-200 mm^3. Mice were monitored, and measurements of tumour volume and body weight recorded 3 times a week.
Both BDCs were tested for their efficacies in in vivo mouse xenograft models, using the human lung squamous cell carcinoma line EBC-1.

The nature of series [4]: Relative stability to DTT of Bicycle Drug Conjugates by quantitative LC-MS. The following applies: compared to unhindered disulphide BDCs. The series is classed as physicochemical. The procedure: Both BDC conjugate structures were assessed for several in vitro parameters such as retention of potency to the human MT1-MMP hemopexin domain, stability in mouse, rat and human plasma, and stability to reducing agents such as dithiothreitol.

The nature of series [5]: Body weight during treatment of EBC-1 xenograft mice. The series is classed as in vivo, Balb/c nude mice. Particulars: 10 mg/kg. The procedure:
FIG. 2: Body weight during treatment of EBC-1 xenograft mice with BT17BDC-27, which is indicative of drug-associated toxicology and overall animal health.
FIG. 4: Body weight during treatment of EBC-1 xenograft mice with BT17BDC-28, which is indicative of drug-associated toxicology and overall animal health.
as §2, §3

Series [6] is described as follows: Plasma stability profiling, Method #2 (quantitative LC-MS), mouse plasma. The series is classed as in vitro ADME. Particulars: incubation up to 24 hrs in plasma, 4 μM BDC, read-out: t1/2 (hrs) (mouse plasma) (converted). The procedure:
as §1

Series [7] has as its system murine, dog, cynomolgus and human MT1-MMP. Kind of series: Species cross-reactivity of peptide ligands. The series is classed as binding.
Series [8] concerns MMP-1, MMP-2, MMP-15 and MMP-16. The series can be described thus: Selectivity for MT1-MMP over other MMPs. The series is classed as binding.
[9] abbreviates: 10 mg/kg, dosed 3 times weekly for 2 weeks.

Starred links: 1 amine or outer side, 2 acyl side, 3 side chain; linkers in the order of their positions; H or OH if unused. Positions of bridges follow the written chain, without caps; N, C: chain ends. Non-standard residues stand in square brackets, D forms with d. Residues, ends and D or L forms follow the SMILES beside them. *: point of attachment. X1 = COc1cc2cc(c1Cl)N(C)C(=O)C[C@H](OC(=O)[C@H](C)N(C)C(=O)CCSSC(C)(C)CCC(=O)*)[C@]1(C)O[C@H]1[C@H](C)[C@@H]1C[C@@](O)(NC(=O)O1)[C@H](OC)/C=C/C=C(\C)C2; 1Nal = N[C@@H](Cc1cccc2ccccc12)C(=O)O; TBMB = c1c(C[*:1])cc(C[*:3])cc1C[*:2]; Tle = CC(C)(C)[C@H](N)C(=O)O; βAla = NCCC(=O)O; Sar = CNCC(=O)O

As for `COc1cc2cc(c1Cl)N(C)C(=O)C[C@H](OC(=O)[C@H](C)N(C)C(=O)CCSSC(C)(C)CCC(=O)N[C@@H](C)C(=O)N[C@H]1CSCc3cc4cc(c3)CSC[C@H](NC(=O)[C@@H](C)NC(=O)[C@H](Cc3cccc5ccccc35)NC(=O)[C@H](CCC(=O)O)NC(=O)[C@H](CC(N)=O)NC(=O)[C@@H](C)NC1=O)C(=O)N[C@@H](CCC(=O)O)C(=O)N[C@@H](CC(=O)O)C(=O)N[C@@H](Cc1ccccc1)C(=O)N[C@@H](Cc1ccc(O)cc1)C(=O)N[C@@H](CC(=O)O)C(=O)N[C@@H](C(C)(C)C)C(=O)N[C@H](C(N)=O)CSC4)[C@]1(C)O[C@H]1[C@H](C)[C@@H]1C[C@@](O)(NC(=O)O1)[C@H](OC)/C=C/C=C(\C)C2` [BT17BDC-27] (X1-AC[dA]NE[1Nal][dA]CEDFYD[Tle]C-NH2; linker 2-8-15 via TBMB), in series [1], the “reduction in sensitivity to a reducing agent such as dithiothreitol” value was 14 fold. Moreover, the “Relative Stability to DTT (ADC)” value in [1] is reported as 14. Further, the half-life at 4 μM is 9 h in [2], 36 h in series [3] and 23 h in series [6]. Further, in the series on EBC-1 xenograft tumours (setting [9]), the cleared tumours within is at most 14 days. Besides, the efficacy and tolerability result in the series with EBC-1 xenograft tumours (doses equal or lower than 5 mg/kg) is “appreciable efficacy and tolerability”. Further, the “Relative Stability to DTT (BDC)” value in series [4] amounted to 32. The body weight entry in series [5] is reported as “slight reduction in body weight”.

Consider `C[C@H](NC(=O)CN(C)C(=O)CN(C)C(=O)CN(C)C(=O)CN(C)C(=O)CN(C)C(=O)CN(C)C(=O)CN(C)C(=O)CN(C)C(=O)CN(C)C(=O)CN(C)C(=O)CCN)C(=O)N[C@H]1CSCc2cc3cc(c2)CSC[C@H](NC(=O)[C@@H](C)NC(=O)[C@H](Cc2cccc4ccccc24)NC(=O)[C@H](CCC(=O)O)NC(=O)[C@H](CC(N)=O)NC(=O)[C@@H](C)NC1=O)C(=O)N[C@@H](CCC(=O)O)C(=O)N[C@@H](CC(=O)O)C(=O)N[C@@H](Cc1ccccc1)C(=O)N[C@@H](Cc1ccc(O)cc1)C(=O)N[C@@H](CC(=O)O)C(=O)N[C@@H](C(C)(C)C)C(=O)N[C@H](C(N)=O)CSC3` [17-69-07-N241, bAla-Sar10-A-(17-69-07) D-Ala1 1Nal4 D-Ala5 tBuGly11] (H-[βAla][Sar][Sar][Sar][Sar][Sar][Sar][Sar][Sar][Sar][Sar]AC[dA]NE[1Nal][dA]CEDFYD[Tle]C-NH2; linker 13-19-26 via TBMB), for which the “cross-reactivity with murine, dog, cynomolgus and human MT1-MMP” value in [7] is “fully cross reactive”.

With `COc1cc2cc(c1Cl)N(C)C(=O)C[C@H](OC(=O)[C@H](C)N(C)C(=O)CCSSC(C)(C)CCC(=O)NCCC(=O)N(C)CC(=O)N(C)CC(=O)N(C)CC(=O)N(C)CC(=O)N(C)CC(=O)N(C)CC(=O)N(C)CC(=O)N(C)CC(=O)N(C)CC(=O)N(C)CC(=O)N[C@@H](C)C(=O)N[C@H]1CSCc3cc4cc(c3)CSC[C@H](NC(=O)[C@@H](C)NC(=O)[C@H](Cc3cccc5ccccc35)NC(=O)[C@H](CCC(=O)O)NC(=O)[C@H](CC(N)=O)NC(=O)[C@@H](C)NC1=O)C(=O)N[C@@H](CCC(=O)O)C(=O)N[C@@H](CC(=O)O)C(=O)N[C@@H](Cc1ccccc1)C(=O)N[C@@H](Cc1ccc(O)cc1)C(=O)N[C@@H](CC(=O)O)C(=O)N[C@@H](C(C)(C)C)C(=O)N[C@H](C(N)=O)CSC4)[C@]1(C)O[C@H]1[C@H](C)[C@@H]1C[C@@](O)(NC(=O)O1)[C@H](OC)/C=C/C=C(\C)C2` [BT17BDC-28] ({X1-βAla}-[Sar][Sar][Sar][Sar][Sar][Sar][Sar][Sar][Sar][Sar]AC[dA]NE[1Nal][dA]CEDFYD[Tle]C-NH2; linker 12-18-25 via TBMB), the “reduction in sensitivity to a reducing agent such as dithiothreitol” value in [1] is 14 fold. Besides, the “Relative Stability to DTT (ADC)” value in series [1] is on record as 14. Besides, the half-life at 4 μM in series [2] was 13 h; in series [3], 29 h; in series [6] it was 19 h. The “effect on tumour growth” value in the series on EBC-1 xenograft tumours (setting [9]) is given as “tumour growth stasis but not active regression”. The “Relative Stability to DTT (BDC)” value in [4] is listed as 28. Also, the body weight result in series [5] is listed as “no weight loss was observed”.

Regarding `C[C@H](N)C(=O)N[C@H]1CSCc2cc3cc(c2)CSC[C@H](NC(=O)[C@@H](C)NC(=O)[C@H](Cc2cccc4ccccc24)NC(=O)[C@H](CCC(=O)O)NC(=O)[C@H](CC(N)=O)NC(=O)[C@@H](C)NC1=O)C(=O)N[C@@H](CCC(=O)O)C(=O)N[C@@H](CC(=O)O)C(=O)N[C@@H](Cc1ccccc1)C(=O)N[C@@H](Cc1ccc(O)cc1)C(=O)N[C@@H](CC(=O)O)C(=O)N[C@@H](C(C)(C)C)C(=O)N[C@H](C(N)=O)CSC3` [17-69-07-N268, A-(17-69-07) D-Ala1 1Nal4 D-Ala5 tBuGly11] (H-AC[dA]NE[1Nal][dA]CEDFYD[Tle]C-NH2; linker 2-8-15 via TBMB), the “cross-reactivity with murine, dog, cynomolgus and human MT1-MMP” value in series [7] is “fully cross reactive”.

As to “-Ci-Y-N-E-F-G-Cii-E-D-F-Y-D-I-Ciii- [17-69-07]”, the “selectivity for MT1-MMP (no cross-reaction with MMP-1, MMP-2, MMP-15 and MMP-16)” value in series [8] is reported as “uniquely selective for MT1-MMP”.

The record behind these values is patent US10994019B2, “Bicyclic peptide-toxin conjugates specific for MT1-MMP” (BicycleRD Limited, priority 2016, dated 2021).
